This series in a line: label from the status in PepcDB records.
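Further: failed if final PepcDB status was selected cloned or expressed and not failed if soluble or beyond.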

With “MTSGGNSIEPSVVAEAEKMLFCYQYDQTITISITSSADPCPLCNGGFLDEYVDPNPNPIPNLILPMSDPISSRFSFIPVMDFTNPSFLGESMEPQSTQQQLNAFDPNQLSDQANPLAGNHGDYFFGRGLEDLI”, the protein production entry was “failed”.

Turning to “MTSHKPYWPIGVFTSVDAGLGVHLEVAQDLKVPTVQVHAPHPHTRTREHAQAFRAKCDAAGIQVTVIFGGFDGESYADIPTTARTVGLVPLETRASRVAEMKEISDFASWVGCPAIGLHIGFVPESSSPDYSELVRVTQDLLTHAANHGQAVHLETGQESADHLLEFIEDVNRPNLGINFDPANMILYGTGNPIEALRKVARYVRSIHCKDALWAPVNERGKSWGQEVALGTGDVGMEAYLTTLWEIGYRGPLTIEREIPHDPVQQKKDLASALELLTGLRKKIANC”, the protein production result is reported as “not failed”. As for “MTSIHVQVPATTANIGAGFDCLGAALSLHNQFQFRLAGESEPFFSLELVGADVETQKLEATADNLLYRAFAKVFATLGQPVPHVNIAIDLKVPLSRGLGSSATAIVGGLVGANALAGSPLSQREIMNLAIEMEGHPDNVVPALLGGCQLSVKHQQDWVI”, the protein production entry is recorded as “failed”. With “MTSKKNSDVIYKSSSNILNEMRAGLIKGAGQDMERIKKRPLIAIANSHSELTTGHAHLAGLGAKVKQGIIAAGGEFAEFNVPAPCDGIAMAHDGMRYVLAQRDLIADIVETHVRSQAFDAVVFIAGCDKINPGMMMAMGRLDLPSLFLAGGPGQMNIRNTPTFNGNIDHGNYFNSPLEFKETFNCASCGACEFMGTANTFQCLAEALGICLPGSANIPAWHSDKLAAARATGEHIVHLFKEGITARQIMTKEAFNNALVMNMAIGGSTNAALHLPAIAHSAGIEMDIKAFETVDHIPTLLAISPNGPYGVQDLWAAGGMPAVMKVMQSDLDTSCLTVTGLPLQATIDNATILNPKVIPERSKPNRQEPGITVLRGNLAPEGCVIKQAGVKPELMYTSGPAICFDSEDDAINMIQDGKLKEGQVIVLRYMGPKGAPGMPEMLGATLALKVAGLSSASLITDGRFSGATSGPCVGHITPEASNGGFIAFIEDGDIITVDIKNRSIHCDVSDEEIEKRKQNWAPTIKPVAFGFMERYRKHVKTASEGAILD”, the protein production entry was “failed”. Turning to “MTSLEEITKAIMADSQNKVFTEKNIEPLFAAPKTARINIVGQAPGIKAQESRLYWNDKSGDRLREWMGVDYDTFYHSGYFAVIPMDFYYPGKGKSGDLPPRKGFAQKWHQPILDLLPDIQLTILIGNYAQKYYLHQKSSVKLTDTVAHYKKYLPDYFPLVHPSPRNQIWMSRHPWFEAQVVPDLKKIIQQIIQSS”, the protein production result is reported as “not failed”. As to “MTSLSQFEPLFLEFMQQEMQVDAAHDIEHVKRVVKTAKQLCDEENADIAIVLPAAYLHDCFTYPKDHPNRKQSSAIAAKKAIAYLESIQYPQHYHDAIAHAIEAHSFSANIRPNTLEAQIVQDADRLDALGAIGVTRCIQVSTHFNAQLYNDNDMFAKERELNDKQFTVDHFQTKLFKIADTMNTESAKLEANKRKAFMQTYLKQLHDEVTALEHHHHHH”, the protein production entry was “not failed”.

Turning to “MTSRSDAGVFHVRALLLGVLYVCGSLLFVTSMLSKTTTLTNVSSNTCPTVRGVDQIIVLLVDALRPDFVLPALSPHYLDGVECSTVSARGVDGNVNGDRRSTLTYMEENLKRVAHPSHGFFFLSDTPTITAQRIKAITTGTTPAFLEVGTNLNTDEVQIDNILLQLRRRSILLGDDTWLNLFPDHQGNASFWKHTHALPPYNVSDFDTNDATVIADLMPLLLSETAEQAPDDYARLIIGHLLAVDHVGHRHHASHPAMYKKLSDINEMLRNVTKRLREERQTSMRTLLVVFGDHGMTNSGDHGGDSEGERDSFMYAELFESSRDSVHAPVNSSDKFQRKNNLTEKRWEDNIDEDLSRLKACRDVAGVHPGKLSAVHQVDLTPTLALLLGVPIPFSNVGRVIPEMVALSNPDVNMSASEECNWKQLTSYFDEAGLYIKPEWKDSNLSLRRRIAQMSHFARSIRMEIRRDGAFIGSSLCMVTALSLLRNGDIQQVICGRSVLGIGTLFLLVLRLLAVFANSFIIKESVEVFCLLQLLLIAALFVAPTKGGGRHASFLIVILLVLLRVAVPLVSRERSHITHTAEATSHLEMWLAKQFPEFHYNSVGIILGAALFVFSAPTMPHRLMGIVLGTVAAVCYGQPLIHHIGPFVFFALTFFFRGMGPLRYTALVLWSSSLCNDNYVASASIAVSGVLLPVVLTATRHLPVVPQALMLHLYMWVSFFAQGNQCLLNTVDLNASFVGLPFNSVALGSVFVLSRLCNAFLFAPIAVMITYGTDRARGWRVCYLLLYITLAQSAVSSFNGYIQKSHLMFFPIFCPKFIFDFCIGMAACIGYALAALLA”, the protein production result is “failed”.

Regarding “MTSRTRDTDTDRATDTDTDRATATLDHAMARSQGLDTLLRDLTDRAVVQVPGAVACSVTVRRADRLMTLAGSTGLPSGLDLRQYENGSGPCVDAAESGDAQYCADLAEETRWPAYTEYALATGVRCVLALPLPIEGETGAALNLYGLVPGSLVQGLDAARAFAERAADAVNEALRIERRQASAADVRTALLSRSVIDQAVGMLMARERIDAHRALERLRRASQDRNVKLRDLCAQVVARASGGASHRGQ”, the protein production result is on record as “failed”. With “MTSTPPTPGPKLLEERSLGGILIHFLAIPTGVVGAGLLYLLATDEFTKRNARNALDWHLTVLLITAVTFGSVFTYAELTGQGVTDVSIFPSSVSTVAGIVTSALLMLWFAVTAWTFAVGLIAMVKAIFGTAWRYPFSLALVERFGSHINLSDRWPLVILGYIVLSPLLIWAVFFVPANDAIVILSAFGLLGLILGLTPLTGIAMYRHGKEHWLQDADQQSHVFAHVGLPILVAAIGYVVSWSFTQSVSPQGDAMYVFLAAFWISSIVYLIRWWTTSSE”, the protein production result is on record as “failed”.

For “MTSVSGCGSVSLITNRSAFLGNGLQHRAVFLKPWSSSSLQSRSMVVEAKTKTSSEDRIARHSRIRKKVNGTTERPRLCVFRSNKHLYVQVIDDTKMHTLASASTKQKPISEEFDYTSGPTIEVAKKVGEVIAKSCLEKGITKVAFDRGGYPYHGRIEALAAAAREHGLQF”, the protein production entry was “failed”. In the case of “MTTATSERQKTLLFKAAERQWKEEFAGKETDIRKVDCNIYKGILYQLEIRQVFLDTSLSLKKLSALLETNQTYLSNVVNKYFGCNLKELVNTYRVEYAKELLCSRRCALTELPCSCGFASKSAFYSAFSRIVGVSPLSYQTQERRLEHHHHHH” it was “not failed”. As for “MTTAYNHLCTAFTRLSRFEHLSAIAGWDMQTMMPAKGNLARSEAMAELNVLQHQILTAPQIGEWLKQAEQELLDEQSIDELKLANLREMHRHYHNAVLLPESLVEAKSLAGARCEHAWRQQRIANDWAGFAENLREVVKLSREEAKIRAEAAGTSGYDALLNLYEPGTNSADIDRIFGDLKQWLPALLQKVTTKQQSSEPCLIPQGPFDLEKQRQLGLSVMKVLGFDFNGGRVDVSVHPFCGGVPQDVRITTRYNNQEFLSALMGIVHETGHARYEQNLPREWLGQPIAHARSTAIHESQSLLFEMQLARSNEFLQVIHPLVIQQFGEQPAFAEHNFIALNQRVKTGLIRVDADEVSYPAHVILRYEIEKALIGGEIDVEDIPALWNEKMQQYLGINTEGDYRNGCMQDIHWTDGAFGYFPTYTLGAMYAAQLFHAARSAIPALDSHIANGNLAPLLNWLQQNIWQHGSRYPTAELITKATGEPLNPRYFRQHLERRYL”, the protein production entry is on record as “failed”. In the case of “MTTCGEFLVKQLEAWGVETVFGIPGVHTVELYRGLPGSRIRHVTPRHEQGAGFMADGYARVTGKPGVCFIITGPGMTNILTAMAQAYADSIPMLVISSVNERARLAHGNGYLHELPNQRNLVGNVCAFSHTLMSAEELPAVLARAFAVFDSERPRPVHIELPLDVITAPAEHLALRPRTVTSRPAPALAPLREAAARLRNAKKPLLLLGGGCVEAAAEARALAAALDAPTALTINAKGLLPADHPLLLGSNQSCVPVRELATEADVVLAIGTELGETDYDVVFDGGFALDGELIRIDIDPQQLMRNYTPSLAIHSDARLAMRVLLAELPGGEASPDSPGARRAAAVRQRLAEDFAGWSHYRQLFAAILAEWPDARFVGDSTQTVYSGNHLVDLDEPRRWFNASTGYGTLGYGLPAAIGAKLGEPGRPVVSLMGDGGLQFTLPELASAVEAKVGIVVLLWNNHGYGEIKRYMERREITPLGVDIYTPDFLAIARGFGCAAERARDLEHLRELLRGAPADRPLIVEVLQAAPFHP” it was “failed”; in that of “MTTEAPIWPAELFEDLDRNGPIPLYFQVAQRLEDGIRSGVLPPGARLENEISVAKHLNVSRPTVRRAIQEVVDKGLLVRRRGVGTQVVQSHVTRPVELTSFFNDLKNANLDPKTRVLEHRLLAASSAIAEKLGVSAGDEVLLIRRLRSTGDIPVAILENYLPPAFNDVSLDELEKGGLYDALRSRGVVLKIANQKIGARRAVGEESTLLDIEDGGPLLTVERVALDNSGQVIELGSHCYRPDMYNFETTLVAR”, “not failed”. Consider “MTTETIQSNANLAPLPPHVPEHLVFDFDMYNPSNLSAGVQEAWAVLQESNVPDLVWTRCNGGHWIATRGQLIREAYEDYRHFSSECPFIPREAGEAYDFIPTSMDPPEQRQFRALANQVVGMPVVDKLENRIQELACSLIESLRPQGQCNFTEDYAEPFPIRIFMLLAGLPEEDIPHLKYLTDQMTRPDGSMTFAEAKEALYDYLIPIIEQRRQKPGTDAISIVANGQVNGRPITSDEAKRMCGLLLVGGLDTVVNFLSFSMEFLAKSPEHRQELIERPERIPAACEELLRRFSLVADGRILTSDYEFHGVQLKKGDQILLPQMLSGLDERENACPMHVDFSRQKVSHTTFGHGSHLCLGQHLARREIIVTLKEWLTRIPDFSIAPGAQIQHKSGIVSGVQALPLVWDPATTKAV”, for which the protein production entry is given as “not failed”. As for “MTTFHADSSITRTFWRYAIPSIAAMVVSGLYQIIDGIFVGHYIGFEGLAGINMAWPAICILGAIGVMVGMGTGSVMSIYRGENKLEKTKVALTTGFWLLAILSIIAISCIVLLAKDILLAQGAEGQNFAYAMDYINVLMFGGFFTACATALPMLVRNDESPNVATFLLVIGALINIVLDYVFIGVMGLGLSGAALATLMAQACVTVLGIGYFFTQRSSIQITLQEVLFSWNKAKQSLSLGASALVMYLYGSFVVAMHNALMMYYGSATTVGAYAIVGYLFMLYYLLAQGIAEGAQPPISYYFGARENKKVYQIFKIALKWVIITGIGWVTILNISPELTTALFTNGDKALIAETIVGIRYHLFAMFLDGMIVLITIYFLSVNEGKKAMVISISNIVIQLPFLLILPKWFGIDGVWLAMPVSNIALIICIAPMVWNHLKTQKIIKPLPLTSTSVMSH”, the entry is “failed”. As for “MTTGVRRRMGVEERRQQLIGVALDLFSRRSPDEVSIDEIASAAGISRPLVYHYFPGKLSLYEAALQRASDDLADRFVEPRQGPLGARLLRVMGRYFDFVDEHGPGFSALMRGGPAVGSTTTNALVDSVRQAAYVQILSHLDVTEPPARLELVVRSWISLAESTALLWLDGRRIPRAELETQLVHDFAALMAVSAAYDEEMGALVRRVLADEPEDGPFGDLVDRLLALSAR”, the protein production result is recorded as “not failed”. As for “MTTIAILSDIHGNMTAFSAVIQDAKAHQADEYWFLGDLFLPGPGSDKLWATLHGLKPTHIVKGNWDDDLFWVLDGPVDLSQPTDVYFSRLVAYLWPHLTAENLATIRNWPLHEVFEQDGLIVSLAHNLPDKNHGHALYPDQPQLNFDQIAPDSQIDLAVYGHTHQQLLRYTSNGQVILNPGSIGQAYSPRPHLQTTTYADYALLQLNDGAITDLDLRQVPYDVSAELSLAKQQQLPYPEVYTKLRHTGATSTHNAAYLKQFEQRHDYQQEVAEFLHKYRHQHLEHHHHHH”, the protein production result was “failed”.

The record behind these values is a protein production outcome set (Wang et al. 2014).
